Measurements reported in US5698519A, “Polypeptide specifically inhibiting cathepsin L” (Taiho Pharmaceutical Co., Ltd., priority 1993, dated 1997).

Columns and labels:
papain = experiment: Enzymatic inhibitory activity against papain (kinetic analysis, Z-Phe-Arg-AMC substrate); format: biochemical; settings: papain 380 pM, substrate Z-Phe-Arg-AMC 5 μM, 0.1M phosphate buffer pH 6.0
Procedure: (§1) The inhibitory activity of Elstatin (polypeptide of the present invention) against papain and cathepsin L was measured by the method of Barrett, A. J. and Kirschke, H. described in Method Enzymol., 80, 535-561 (1981) using Bz--DL--Arg-2-naphthylamide or Z--Phe--Arg--MCA as a substrate (Bz, Z and AMC represent benzoyl, benzyloxycarbonyl, and 4-methyl-7-coumarylamide).
(§2) The active site of the enzyme was titrated using a cysteine protease inhibitor Ep-475 (L-3-carboxy-trans-2,3-epoxypropyl-leucylamide-(3-guanizino)butane). Papain which had undergone the titration of active site was used to determine the molarity of the inhibitor (Turk, B. et al. J. Biol. Chem. 268, 7323-7329 (1993)).
(§3) The rate of the reaction employing Z--Phe--Arg--AMC as a substrate was determined by the kinetic analysis of Elstatin, papain, and cathepsin L. Different concentrations of Elstatin and a substrate (papain: 5 μM, cathepsin L: 10 μM) were dissolved in 1.97 ml of a buffer solution described above. In the measurement of cathepsin L, 0.34M acetate buffer (pH 5.5) containing 2 mM dithiothreitol and 1.5 mM EDTA was used. The reaction was started by the addition of 30 μl of activated papain (final concentration: 380 pM) and cathepsin L (final concentration: 60 pM). […] The obtained data were analysed by a non-linear regression analysis of Morrison (Trends Biochem. Sci. 7, 102-105 (1982)).

cathepsin B = experiment: Enzymatic inhibitory activity against cathepsin B (stopped assay); format: biochemical; settings: cathepsin B 130 nM, Elstatin 50-750 nM, pH 6.0, 25° 20 minutes, Bz-DL-Arg-2-naphthylamide
Procedure: (§4) Equilibrium dissociation constant (Ki) of Elstatin and cathepsin B and H was determined using stopped assay method. In detail, cathepsin B (final concentration: 130 nM) and cathepsin H (final concentration: 25 nM) were incubated together with different concentrations of Elstatin (final concentration: 50-750 nM) in 0.1M phosphate buffer (pH 6.0) containing 2 mM of dithiothreitol and 1.5 mM of EDTA at 25° for 20 minutes. The residual activity was determined using Bz--DL--Arg-2-naphthylamide as a substrate conditions identical to those according to Barrett, A. J. and Kirschke, H. mentioned above. The value Ki was calculated using a method of Henderson (Biochem. J. 127, 321-333 (1972)).

cathepsin H = experiment: Enzymatic inhibitory activity against cathepsin H (stopped assay); format: biochemical; settings: cathepsin H 25 nM, Elstatin 50-750 nM, pH 6.0, 25° 20 minutes, Bz-DL-Arg-2-naphthylamide
Procedure: as §4

cathepsin L = experiment: Enzymatic inhibitory activity against cathepsin L (kinetic analysis, Z-Phe-Arg-AMC substrate); format: biochemical
Procedure: as §1, §2, §3

[1] = tested on: unfractionated bone cells (osteoclastic bone resorption); experiment: Bone resorption inhibitory action (pit formation on ivory slices, parathyroid hormone induced); format: cell-based, Sprague-Dawley rats; settings: 50 nM human parathyroid hormone, 72 hours, FIG. 1
Procedure: A method proposed by McSheehy, P. M. J. and Chambers, T. J. in J Clin. Invest., 80, 425-429 (1987) was partly modified and applied.
Unfractionated bone cells were prepared from tibiae, femora and humeri of 1 to 2 day-old Sprague-Dawley rats. The bones were dissected into soft tissues in an ice-cold medium (pH 7.2) [α-minimum essential medium (α-MEM) (Flow Laboratories, McLean, Va.), supplemented with 100 IU/ml of benzylpenicillin] containing 20 mM N-2-hydroxyethyl-piperazine-N'-ethanesulfonic acid (HEPES). In order to prepare a bone cell preparation, long bones were minced with a pair of scissors in the same medium. Subsequently, the cell suspension was triturated with a wide bored plastic pipette. 200 μl of cell suspension (1×10^6 cells/ml) was added to each well of a 96 well-plate containing an ivory slice (thickness: 150 μm, diameter: 6 mm; ultrasonicated and disinfected with 75% ethanol), and the cells were incubated at 37° C. for 2 hours in a CO2 incubator (5% CO2 : 95% air). The slices were washed with α-MEM, and transferred to a HEPES-free fresh medium containing 10% FBS, each of test samples of various concentrations and 50 nM of human parathyroid hormone (Peninsula Laboratories Inc., Belmond, Calif.) and incubated for 72 hours. […] The total area of pits was measured under a microscope to detect possible osteoclastic bone resorption.

B1: Elstatin: Novel 103-residue polypeptide (Sequence No. 1) isolated from pig leucocyte cytosol; specifically inhibits cathepsin L (protein)
chain: MESEEMLAGGLTEPRPATPEIQEIANKVKPQLEEKTNKTYEKFEAIIYRSQVVAGTNYYIKVHVGGNNYVHIRVFQSLPHQEDPLKLIGYQVDKTKDDELTGF
In the case of B1, the Ki (papain) is reported as 0.19 ± 0.097 nM, the Ki (cathepsin B) is reported as 335 ± 50 nM and the Ki (cathepsin H) is reported as 125 ± 7 nM. The Ki (cathepsin L; cathepsin L 60 pM, substrate Z-Phe-Arg-AMC 10 μM, 0.34M acetate buffer pH 5.5) was 0.067 ± 0.036 nM, the “Specificity of inhibition among the cathepsin group” value (cathepsin L; cathepsin L versus cathepsins B and H) was “specifically inhibits only cathepsin L among the members of the cathepsin group” and the “Bone resorption inhibitory action (total area of pits)” value [1] was “significantly potent bone resorption inhibitory action”.
